Measurements: US20030082736A1 (IMMUNEX, published 2003)

Target: T1, TNF (125I-TNF) (human, UniProt P01375 77-233, limits assumed, radioiodinated (125I) where used as labeled ligand)
T1 construct: It may be the same FLAG-TNFα as m1; also called 125I-labeled TNF
Assay: TNF binding assay on product of transfected COS-7 cells

T1 sequence (P01375 77-233 limits assumed): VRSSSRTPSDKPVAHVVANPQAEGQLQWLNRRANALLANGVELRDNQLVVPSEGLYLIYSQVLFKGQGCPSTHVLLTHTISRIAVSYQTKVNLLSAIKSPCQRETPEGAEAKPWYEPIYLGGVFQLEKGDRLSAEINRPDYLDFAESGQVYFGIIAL

B1: soluble huTNF-RΔ142 (receptor)
chain: LPAQVAFTPYAPEPGSTCRLREYYDQTAQMCCSKCSPGQHAKVFCTKTSDTVCDSCEDSTYTQLWNWVPECLSCGSRCSSDQVETQACTREQNRICTCRPGWYCALSKQEGCRLCAPLRKCRPGFGVARPGTETSDVVCKPC
notes: Transfected into COS-7 cells; also called huTNF-R?142; product of psolTNFRΔ142/CAVNOT
B1: no binding.
